Consider 22 sequences from the DeepSol protein solubility set.

A short description of this data set: soluble on expression in E. coli; label from the status in PepcDB or PDB records.
As for “MSNTSSSHNTAFTPSSPAERYAQALASGQFMPDEAQAQAVQELERVWQELLSRYKASKKAFRRFRRQTSPKGVYMWGGVGRGKTWLMDQFYDSIPFRRKTRMHFHHFMQHVHRELNKLSGQRNPLDLVADQIYKDAVIICFDEFFVSNVTDAMILSDLFQKLFNRGVTLVATSNIAPDGLYKNGIHRDRFLPTIELVQKNCTILNVDAGVDYRLRVLKQAQLFKHPLTDDAKIWMSQRFSAITRSQIVSQQPITINNRVVETLGHTEDVLWCEFSELCLKPRSPADFIEIANIYNTVLVSNVPHLTDYLSEGTRRFIYLVDEFYDRGVKLLLTSQDSIIEIYEGEKLAFEIERTRSRLLEMQSDEYLHSEHRHINSENNSLEHHHHHH”, the “soluble on expression in E. coli” value is reported as “not soluble”.
Next, “MSPDQKHRYKLYYVNMRGRAEPIRLVFHFLGVDFEDYRMDKGDFTGAMKDKAPMKQLPFIEIDGGKTTLCQTVSICRYLAKSIQPDRWFGGATKTDSAKVDMMADGFADLFQLAAMAKYAPDPIKDSMMGTYKESIGPKLENMQDLLKKSKGEYFVGKSIHWCDVYILGVLQALDESDDGVFDNLPELREYYLRMRNLPELKEYIDANWPETKYKE”: “not soluble”.
The result for “MSPEKQPLPAALVGSHVRAAAGTPADLATDRKFWTGLSRAVQERIADDWERTREAYGAARQQHYFSAEFLMGRALLNNLTNLGLVDEAAAATRELGHELTDILEIENDAALGNGGLGRLAACFLDSAVTQDYPVTGYGLLYRFGLFRQSFNEGFQVEKPDPWREEEYPFTIRRASDQLVVCFDDMKTRAIPYDMPITGYGTHNVGTLRLWKAEPWEEFDYDAFNAQRFTDAIIERERVSDICRVLYPNDTTYEGKKLRVRQQYFFTSASLQAMIQDHLAHHKDLSNFAEFHSVQLNDTHPVLAIPELMRLLMDEHDMGWEESWAIVSKTFAYTNHTVLTEALEQWDEQIFQQLFWRVWEIIAEIDRRFRLERAADGLDEETINRMAPIQHGTVHMAWIACYAAYSINGVAALHTEIIKAETLADWYALWPEKFNNKTNGVTPRRWLRMINPGLSDLLTRLSGSDDWVTDLDELKKLRSYADDKSVLEELRAIKAANKQDFAEWILERQGIEIDPESIFDVQIKRLHEYKRQLMNALYVLDLYFRIKEDGLTDIPARTVIFGAKAAPGYVRAKAIIKLINSIADLVNNDPEVSPLLKVVFVENYNVSPAEHILPASDVSEQISTAGKEASGTSNMKFMMNGALTLGTMDGANVEIVDSVGEENAYIFGARVEELPALRESYKPYELYETVPGLKRALDALDNGTLNDNNSGLFYDLKHSLIHGYGKDASDTYYVLGDFADYRETRDRMAADYASDPLGWARMAWINICESGRFSSDRTIRDYATEIWKLEPTPAVKK” reads “soluble”; that for “MSPEKYLQDWQTSQTIAESISPLIGKLYRQKGIEVVLFGKTLINATTIDILKTHRVARRYTGSPLSLEHTMPIIQALCEMSISSCRVDVGQLATKYWNEHEDTAALNDFLQTALQGARDADSS”, “not soluble”.
Next, “MSPETMFFQDEDSRNLATNFIANYLKLWDANRSELMILYQNESQFSMQVDSSHPHLIESGNSGYSGSTDFGYYLNNSRNLTRVSSIKARMAKLSIGQEQIYKSFQQLPKTRHDIIATPELFSMEVYKFPTLNGIMITLHGSFDEVAQPEVDGSASSAPSGPRGGSRYHSGPKHKRIPLSKKSFDRTFVVIPGPNGSMIVASDTLLIRPYTSDFPWKVQK”: “soluble”.
As to “MSPGERFLDWLKRLQGQKAWTAARAAFRRSLAFPPGAYPRAMPYVEPFLAKGDWRQEEREAHYLVAALYALKDGDHQVGRTLARALWEKAQGSASVEKRFLALLEADRDQIAFRLRQAVALVEGGIDFARLLDDLLRWFSPERHVQARWAREYYGAGASEEEKKKEVEA”, the “soluble on expression in E. coli” value is listed as “soluble”.
The result for “MSPKFAADLKKTIYDNMTFDPKHYGGRWNILQDHGTSHLSIVDSERNAVSMTTTVNAYFGSLILSPSTGILLNNEMDDFSMPANTSANSPPPAPANFVRPLKRPLSSMTPTIILKDGNLKAAVGASGGSMIPAGTMEVLLNHFVKNMDPLSSVMAPRVYHQLIPNVVQYENWTTVTGDHFELDAATRADLRRKGHVLEPLAGGTISQLVVDDVERHGGLTAVSDPRKGGFPAGY” reads “soluble”.
In the case of “MSPLKPLYKLYEWYISRNLRRDRMPRHVAIIMDGNRRYSKLQGSMNPIEGHKKGIETLEKVLDWCVDLGIEIVTAYAFSTENFKRPEKEVKGLMKLFRENFEAIASNEKIHKNRVRVRAVGKLELLPEDVRRAIEIAEKSTEQYSDRLVNIAIGYDGRQEIVDATRKIAEDVKAGLIDPEDIDEDMINRNLYTAGLEDPHLIIRTSGEERLSGFLLWQSSYSELYFCDSLWPELRKVDFLRAIRSYQQRERRFGV”, the “soluble on expression in E. coli” value is listed as “soluble”.
The result for “MSPPSTIAYVLPPGFKFVPNDEEVIHCYLKPYSDGNTNVLLHVPIHLVNIYESNPQTLSEEFQKGNDKEWFIITERNKVDQGLSQTKRVGYGAKRQKRVDTNGGYWHATVAAQKINAGDGVVRNKRPLAYYVGKPSEGVKTDWLMQEYSLDHSSHNNDKDYTLCKIYLTPQATKMNKEVGEEKKKQKKGEAVVSVAPVEALEEQLPCNVEYHQPLAPLDSCQPQPHDLAYQQQQFCPGPLDSYQPQPHDMENQQPHNEKLKKEEDVEQLDLHQPDQGKGC” reads “not soluble”; that for “MSQEIRQNEKISYRIEGPFFIIHLINPDNLNALEGEDYIYLGELLELADRNRDVYFTIIQSSGRFFSSGADFKGIAKAQGDDTNKYPSETSKWVSNFVARNVYVTDAFIKHSKVLICCLNGPAIGLSAALVALCDIVYSINDKVYLLYPFANLGLITEGGTTVSLPLKFGTNTTYECLMFNKPFKYDIMCENGFISKNFNMPSSNAEAFNAKVLEELREKVKGLYLPSCLGMKKLLKSNHIDAFNKANSVEVNESLKYWVDGEPLKRFRQLGSKQRKHRL”, “soluble”.
Next, “MSQFTLYKNKDKSSAKTYPYFVDVQSDLLDNLNTRLVIPLTPIELLDKKAPSHLCPTIHIDEGDFIMLTQQMTSVPVKILSEPVNELSTFRNEIIAAIDFLITGI”: “soluble”; “MSQLEIRDLWASIDGETILKGVNLVVPKGEVHALMGPNGAGKSTLGKILAGDPEYTVERGEILLDGENILELSPDERARKGLFLAFQYPVEVPGVTIANFLRLALQAKLGREVGVAEFWTKVKKALELLDWDESYLSRYLNEGFSGGEKKRNEILQLLVLEPTYAVLDETDSGLDIDALKVVARGVNAMRGPNFGALVITHYQRILNYIQPDKVHVMMDGRVVATGGPELALELEAKGYEWLKEKVKEGA”: “soluble”.
The result for “MSQLPTDFASLIKRFQFVSVLDSNPQTKVMSLLGTIDNKDAIITAEKTHFLFDETVRRPSQDGRSTPVLYNCENEYSCINGIQELKEITSNDIYYWGLSVIKQDMESNPTAKLNLIWPATPIHIKKYEQQNFHLVRETPEMYKRIVQPYIEEMCNNGRLKWVNNILYEGAESERVVYKDFSEENKDDGFLILPDMKWDGMNLDSLYLVAIVYRTDIKTIRDLRYSDRQWLINLNNKIRSIVPGCYNYAVHPDELRILVHYQPSYYHFHIHIVNIKHPGLGNSIAAGKAILLEDIIEMLNYLGPEGYMNKTITYAIGENHDLWKRGLEEELTKQLERDGIPKIPKIVNGFK” reads “soluble”.
With “MSQMMQMYQQVGPAQFSAMIGQFAPYFASIAPQFVELRPGYAEVTFPKRREVLNHIGTVHAIALCNAAELAAGTMTDASIPAGHRWIPRGMTVEYLAKATGDVRAVADGSQIDWQATGNLVVPVVAYVDDKPVFRAEITMYVSQA”, the “soluble on expression in E. coli” value is given as “soluble”.
For “MSQPLLAVNGLMMRFGGLLAVNNVSLELREREIVSLIGPNGAGKTTVFNCLTGFYKPTGGTITLRERHLEGLPGQQIARMGVVRTFQHVRLFREMTVIENLLVAQHQQLKTGLFSGLLKTPAFRRAQSEALDRAATWLERIGLLEHANRQASNLAYGDQRRLEIARCMVTQPEILMLDEPAAGLNPKETKELDELIAELRNHHNTTILLIEHDMKLVMGISDRIYVVNQGTPLANGTPEEIRNNPDVIRAYLGEA”, the “soluble on expression in E. coli” value is “soluble”.
Turning to “MSQVSIIIPTLNEAASLGRTLRQLTLLNPPAKEVIVVDGGSEDETIAIAKQNFESFRQATGVQVIFCERRGRSVQMNYGALSATGDILCFLHADTWVPDDLVAVIEKTLAETKVSCGGFISLMTGSQTTRWGISLHNYLKTYYAPLLFKPHLFFQGLRLLFGDQVMFCRRNDFWDCGGFNEELPIMEDGDLCLKLVQKGRIALVNRIVQSSDRRVARWGSWKATAIYLYIGVLWGIGVDANYLKQFYQDIRLEHHHHHH”, the “soluble on expression in E. coli” value is “soluble”.
Next, “MSQYSNMYKFEIDIQGNLEEVYGRIFSVLKQAGYIILSYVDVAEILQRTMQKKIDPLYILNICKPAAANEFISESYETSMFIPCKLVLHQMGENTRVSLQLISPQIETFTDLSTDVAKKYENEIVDILKKM”: “not soluble”; “MSRAKAAPVAGPEVAANRAGRQARIVAILSSAQVRSQNELAALLAAEGIEVTQATLSRDLEELGAVKLRGADGGTGIYVVPEDGSPVRGVSGGTDRMARLLGELLVSTDDSGNLAVLRTPPGAAHYLASAIDRAALPQVVGTIAGDDTILVVAREPTTGAQLAGMFENLR”: “soluble”; “MSREILTVVETVSNEKGVSREAIFEALEQALVAATKKKFYEGTNAEEAQLRVEIDRKTGDYRTFRQWTLVADEDHEMPACQDAISDVDASKWSIGDVRELEVESIEFGRIAAQIAKQVIVQKIREAERALIADAYESKVGELIYGEVKKQTKDGFIIDLGDNAEAYLAREEMIAKEILRPKQRMNAILYSVNREGRGAQLLLSRARPEMLMALMKKEIPEISEEIIEIKAAARQPGVRAKIAVKTNDHRIDPVGACIGMRGTRIQAVQQELNGERIDVVVWSDDPAQYIASALEPADVSGIVLDEDTRSADIIFATNDQLARAIGSQGQNVRLASELTGYKLDMMLEEEYRARQQNEAQQYLDMFVTRLDIEEDLAMALVEMGFTSLEEIAYVPPETFDEIELDQELVELLQSRAKEAALTDALKQQENVQEPSVELLAMAGMTQELAYALAARGVVTVDDLADQATDDISDIEGLSEEKAGQLIMKARESWFNLEHHHHHH”: “soluble”.
Next, “MSRFQTLTPASLSREAFIEAFADIYEHSPWVAEKAYDLGIDDSLNDIEGLHQRMADILLSASREAQLALINAHPDLAGKAAIRGELTASSTSEQAGAGIHECSAEEFARFTELNDAYKARFGFPFIKAVKGSNRHQILAAFEERIQHSADEEFATALAEINKIALFRLQQLLEHHHHHH”: “soluble”.
As for “MSRGPEEVNRLTESTYRNVMEQFNPGLRNLINLGKNYEKAVNAMILAGKAYYDGVAKIGEIATGSPVSTELGHVLIEISSTHKKLNESLDENFKKFHKEIIHELEKKIELDVKYMNATLKRYQTEHKNKLESLEKSQAELKKIRRKSQGSRNALKYEHKEIEYVETVTSRQSEIQKFIADGCKEALLEEKRRFCFLVDKHCGFANHIHYYHLQSAELLNSKLPRWQETCVDAIKVPEKIMNMIEEIKTPASTPVSGTPQASPMIERSNVVRKDYDTLSKCSPKMPPAPSGRAYTSPLIDMFNNPATAAPNSQRVNNSTGTSEDPSLQRSVSVATGLNMMKKQKVKTIFPHTAGSNKTLLSFAQGDVITLLIPEEKDGWLYGEHDVSKARGWFPSSYTKLLEENETEAVTVPTPSPTPVRSISTVNLSENSSVVIPPPDYLECLSMGAAADRRADSARTTSTFKAPASKPETAAPNDANGTAKPPFLSGENPFATVKLRPTVTNDRSAPIIR”, the “soluble on expression in E. coli” value is “soluble”.
Next, “MSRIIALIISFLLVGCATPPMPAQRIVGEVRMSRPLSRIAHIDVSMFGLYEGKVREVQRTHFETGNLPLFFSIKLNPAQRGEGELYLRSTLSFPERGVQAVAQQKLTGKNKVVLQMIPKTCYPNCQLPNTR”: “not soluble”.
